Data set [1] addresses T1, Zymomonas mobilis glucose 6-phosphate dehydrogenase EC 1.1.1.49 (Zymomonas mobilis subsp. mobilis, UniProt P21907).
T1 construct: endogenous in cells; host or cells: Zymomonas mobilis cells (enzyme extracted and purified from the organism itself)
T1 sequence (P21907 1-485): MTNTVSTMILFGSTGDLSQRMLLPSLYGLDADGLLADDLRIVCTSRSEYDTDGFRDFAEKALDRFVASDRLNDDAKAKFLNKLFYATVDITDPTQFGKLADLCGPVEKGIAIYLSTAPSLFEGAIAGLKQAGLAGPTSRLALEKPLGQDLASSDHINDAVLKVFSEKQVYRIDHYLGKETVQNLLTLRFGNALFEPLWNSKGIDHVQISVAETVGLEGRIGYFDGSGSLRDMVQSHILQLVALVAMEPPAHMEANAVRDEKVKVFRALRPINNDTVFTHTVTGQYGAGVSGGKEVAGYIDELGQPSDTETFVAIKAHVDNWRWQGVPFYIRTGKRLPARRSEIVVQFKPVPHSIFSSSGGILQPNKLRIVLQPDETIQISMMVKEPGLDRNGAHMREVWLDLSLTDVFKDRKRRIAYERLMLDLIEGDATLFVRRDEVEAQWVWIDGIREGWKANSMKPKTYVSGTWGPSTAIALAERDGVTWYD
The format is biochemical. The note with it: assay conditions: 25° C., 50 mM Tris-Cl buffer, pH 8.0.

For data set [2], the target named is T2, Zymomonas mobilis fructokinase EC 2.7.1.4 (Zymomonas mobilis subsp. mobilis, UniProt Q03417).
T2 construct: endogenous in cells; host or cells: Zymomonas mobilis cells (enzyme extracted and purified from the organism itself)
T2 sequence (Q03417 1-301): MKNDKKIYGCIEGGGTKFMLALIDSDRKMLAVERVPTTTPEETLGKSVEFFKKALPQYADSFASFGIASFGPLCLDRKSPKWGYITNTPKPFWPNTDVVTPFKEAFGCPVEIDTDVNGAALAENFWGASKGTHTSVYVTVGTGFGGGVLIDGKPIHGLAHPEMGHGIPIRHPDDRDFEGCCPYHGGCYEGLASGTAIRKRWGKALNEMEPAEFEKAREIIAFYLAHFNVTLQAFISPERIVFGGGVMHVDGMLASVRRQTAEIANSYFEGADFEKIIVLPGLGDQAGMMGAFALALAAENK
Briefly: Kinetic properties, sugar specificity and glucose inhibition of purified fructokinase. It counts as biochemical. The text has this:
The active enzyme may be concentrated by ultrafiltration and stored frozen or freeze-dried.

Substrate in data set [3]: Nc1ncnc2c1ncn2[C@@H]1O[C@H](COP(=O)(O)OP(=O)(O)OP(=O)(O)O)[C@@H](O)[C@H]1O
Briefly: purified protein, by the assay type. The format is biochemical, Zymomonas mobilis. To be noted: other: assay conditions printed: 50 mM K-morpholino propane sulphonate buffer, 30 mM NaCl, 2 mM MgCl2 pH 6.8.

Substrate in data set [4]: O=C(CO)[C@@H](O)[C@H](O)[C@H](O)CO
Description: purified protein, by the assay type. It counts as biochemical, Zymomonas mobilis. To be noted: other: assay conditions printed: 50 mM K-morpholino propane sulphonate buffer, 30 mM NaCl, 2 mM MgCl2 pH 6.8.

Substrate in data set [5]: Nc1ncnc2c1ncn2[C@@H]1O[C@H](COP(=O)(O)OP(=O)(O)OP(=O)(O)O)[C@@H](O)[C@H]1O
Briefly: Kinetic properties and sugar specificity of purified glucokinase. The format is biochemical, Zymomonas mobilis. To be noted: other: approximate values, assay conditions: 25° C., 50 mM K-Morpholinopropane sulphonate, 30 mM NaCl, 2 mM MgCl2, pH 6.8.

Substrate in data set [6]: OC[C@H]1OC(O)[C@H](O)[C@@H](O)[C@@H]1O
Briefly: purified protein, by the assay type. The note with it: other: approximate values, assay conditions: 25° C., 50 mM K-Morpholinopropane sulphonate, 30 mM NaCl, 2 mM MgCl2, pH 6.8, pH 6.8.

Substrate in data set [7]: NC(=O)c1ccc[n+]([C@@H]2O[C@H](COP(=O)([O-])OP(=O)(O)OC[C@H]3O[C@@H](n4cnc5c(N)ncnc54)[C@H](O)[C@@H]3O)[C@@H](O)[C@H]2O)c1
Description: purified protein, by the assay type. The format is biochemical, Zymomonas mobilis. The note with it: other: assay conditions printed: 25° C., 50 mM Tris-Cl buffer, pH 8.0.

Substrate in data set [8]: NC(=O)c1ccc[n+]([C@@H]2O[C@H](COP(=O)([O-])OP(=O)(O)OC[C@H]3O[C@@H](n4cnc5c(N)ncnc54)[C@H](OP(=O)(O)O)[C@@H]3O)[C@@H](O)[C@H]2O)c1
Briefly: purified protein, by the assay type. To be noted: other: assay conditions printed: 25° C., 50 mM Tris-Cl buffer, pH 8.0, pH 8.0.

Here are results for 5 molecules from patent US4623625A, “Enzyme extraction and purification processes” (priority 1983, dated 1986).

In the case of “glucose 6-phosphate [glucose 6-phosphate dehydrogenase]”, the Km in data set [1] was found to be 170 µM. With `OC[C@H]1OC(O)[C@H](O)[C@@H](O)[C@@H]1O` (stereo partly drawn) [glucose], the Ki in data set [2] (competitive inhibitor with fructose) worked out at 200 µM. The “enzyme activity in the presence of glucose” value in data set [2] (glucose at 5-10 mM or more, low levels of fructose) was “essentially inactive”.

B1: Zymomonas mobilis fructokinase EC 2.7.1.4 (Zymomonas mobilis subsp. mobilis ZM4 = ATCC 31821) (protein)
chain: T2 sequence (Q03417 1-301)
notes: endogenous in cells; host or cells: Zymomonas mobilis cells (enzyme extracted and purified from the organism itself)
For the molecule B1, the Km in data set [3] was 400 µM; in data set [4], 500 µM.

B2: Zymomonas mobilis glucokinase EC 2.7.1.2 (Zymomonas mobilis subsp. mobilis ZM4 = ATCC 31821) (protein)
chain: MEIVAIDIGGTHARFSIAEVSNGRVLSLGEETTFKTAEHASLQLAWERFGEKLGRPLPRAAAIAWAGPVHGEVLKLTNNPWVLRPATLNEKLDIDTHVLINDFGAVAHAVAHMDSSYLDHICGPDEALPSDGVITILGPGTGLGVAHLLRTEGRYFVIETEGGHIDFAPLDRLEDKILARLRERFRRVSIERIISGPGLGNIYEALAAIEGVPFSLLDDIKLWQMALEGKDNLAEAALDRFCLSLGAIAGDLALAQGATSVVIGGGVGLRIASHLPESGFRQRFVSKGRFERVMSKIPVKLITYPQPGLLGAAAAYANKYSEVE
notes: Glucokinase so obtained is almost homogenous by electrophoretic criteria; endogenous in cells; host or cells: Zymomonas mobilis cells (enzyme extracted and purified from the organism itself)
B2: the values for the Km in data set [5] and in data set [6] were 800 µM and 200 µM, respectively.

B3: Zymomonas mobilis glucose 6-phosphate dehydrogenase EC 1.1.1.49 (Zymomonas mobilis subsp. mobilis ZM4 = ATCC 31821) (protein)
chain: T1 sequence (P21907 1-485)
notes: as for B1
Regarding B3, the figures for the Km in data set [7] and in data set [8] were 210 µM and 40 µM, respectively.
